Assay: soluble on expression in E. coli; label from the status in PepcDB or PDB records

| Sequence | soluble on expression in E. coli |
| --- | --- |
| MERTGFLEYVLNYVKKGVELGGFPEDFYKILSRPRRVLIVNIPVRLDGGGFEVFEGYRVQHCDVLGPYKGGVRFHPEVTLADDVALAILMTLKNSLAGLPYGGAKGAVRVDPKKLSQRELEELSRGYARAIAPLIGDVVDIPAPDVGTNAQIMAWMVDEYSKIKGYNVPGVFTSKPPELWGNPVREYATGFGVAVATREMAKKLWGGIEGKTVAIQGMGNVGRWTAYWLEKMGAKVIAVSDINGVAYRKEGLNVELIQKNKGLTGPALVELFTTKDNAEFVKNPDAIFKLDVDIFVPAAIENVIRGDNAGLVKARLVVEGANGPTTPEAERILYERGVVVVPDILANAGGVIMSYLEWVENLQWYIWDEEETRKRLENIMVNNVERVYKRWQREKGWTMRDAAIVTALERIYNAMKIRGWI | soluble |
| MESGKMAPPKNAPRDALVMAQILKDMGITEYEPRVINQMLEFAFRYVTTILDDAKIYSSHAKKPNVDADDVRLAIQCRADQSFTSPPPRDFLLDIARQKNQTPLPLIKPYAGPRLPPDRYCLTAPNYRLKSLIKKGPNQGRLVPRLSVGAVSSKPTTPTIATPQTVSVPNKVATPMSVTSQRFTVQIPPSQSTPVKPVPATTAVQNVLINPSMIGPKNILITTNMVSSQNTANEANPLKRKHEDDDDNDIM | soluble |
| MESKQPEDIHQDCELKQDELISKLQHSQQNFDNIKKILANFEKENENLADENEILKTRIASLEKDVKQEKNATKMAKSLNEETINELTLSEDLIESLKKQFQASKIELKEEILSKNKVEKDYSNDKRYFLEREQYLLITMESMESGKLEHEQQTEIMNKDVEELKIRVKELEATDLSEKNIELERQVGKLTAQLQDFESSRGYEQELILSQLEVQKRKLDKQLIDLQSKLERNPELVEFDKLHEELQTERMNMPVQVCYVHVSFIHKDIENLIYRKMNNNK | not soluble |
| MESLNEYMDKIINRLKAVNEKDELVDEGMRKLQKCQEKIMKTRIDAQKHIDERHEQQSFEQQLLNKNMFETEQLEEKLKRLDDENKIGNEREFNKKLEAISAKWTDDVNLLKTTPNEPNDGNRKKLSNLSNILV | not soluble |
| MESPNMNQPKINSTAGCALPPPNEMILKWAAERPNEVYLKQIINRQFVEFTYAEVADQALKLVSALRGLGIQPGDKVALVSKNCAE | not soluble |
| MESSTDGQVVPQEVLNLPLEKYHEEADDYLDHLLDSLEELSEAHPDCIPDVELSHGVMTLEIPAFGTYVINKQPPNKQIWLASPLSGPNRFDLLNGEWVSLRNGTKLTDILTEEVEKAISKSQ | soluble |
| METFDVVVIGAGAAGMMCAIEAGKRGRSVLVIDHAKAPGEKIRISGGGRCNFTNTGASIHNFLSANPKFALSALRRYRPRDFIALVERYGIAYHEKTLGQLFCDGSAKQIITMLLTEMKAAGVTLRLETSVESVAKAVSGFEVSLSSGKVACASLVVASGGKSIPKMGATGLGYDIAKQFGLNIIETRPALVPLTFEAGMLARLTPLSGVALDAVVGHGKTKFQEGMLFTHRGLSGPSILQISSYWREGDEIRVDMAPGVDALAALKTARTATPRQAVATVLATLLPKRVAQVIAEEEAPDKGNIADCSDKVLGRLASAVNAWTFKPVGSEGYRTAEVTLGGVDTEALDSRTLEAKAVPGLFFIGEVVDVTGWLGGYNFQWAWASGWSAGQSV | soluble |
| METFKDRLVFLWKSEARQAKIASDIEMTIAGFSRIWNEGGLPKSETLKKIKQLKGCSIDWLLTGEGNPFPDEAPKKSLAYDTLGNEVDTDEFVFVPRYDIRAAAGYGQFVDHEEPVFTMAFRRHWIENYVTRDTKNLSVISVKGDSMEGVLNDGDSILVNHGENTPRDGLYVLRINENLLVKRLQIVPGGIINVISANEAYPAFEINLNDLTDDVEIIGRVEWFGRTI | not soluble |
| METGGGAPLTKSSEAVEGDFVEDRLRGNEAFRRGNYEAAASYYSEALEKIRLAKTELPTQDRYPWSLEEVLIRCNRALVFLRLASAAALPNVGSNRFEEDACTAEHESEEATPCSLWQRAAEDASVALDLITDFEDEGESERVTELRVKALYRRMVANKGQNNFADAAKDAEALAKIRPEYRSEAELLAQRAAAESERAKQEALQKLKEVGNSFLSLFGVSIDNFQTKRNPDGTYSVSYCPKS | not soluble |
